Measurements: US20140328858, “LIN28-MEDIATED CONTROL OF LET-7 BIOGENESIS” (Children's Medical Center Corporation, published 2014)
Like-named read-outs stand apart in the source and are kept apart here.

Experiments:
[1] = tested on: immunopurified Flag-Lin28
[2] = molecular target: immunopurified Flag-Lin28; remark: listed apart in the source
Lin28A = molecular target: T1, Lin28A (Homo sapiens, UniProt Q9H9Z2 Q9H9Z2:2-209); assay: EMSA; 50 mM Tris pH 7.5, 100 mM NaCl, 10 mM bME, RT, 0.5 nM RNA; Kd fitted (Hill) but value not in text; details: tags: 6xHis N-terminal, E. coli (pET21); label: 5'-end label (EMSA); hairpin
T1 sequence: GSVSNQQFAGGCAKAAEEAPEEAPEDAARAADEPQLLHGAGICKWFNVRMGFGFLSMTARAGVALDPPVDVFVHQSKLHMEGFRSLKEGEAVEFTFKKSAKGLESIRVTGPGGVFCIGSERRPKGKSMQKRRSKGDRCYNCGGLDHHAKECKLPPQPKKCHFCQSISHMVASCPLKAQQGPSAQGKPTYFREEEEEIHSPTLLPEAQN
Procedure: (§1) EMSA was performed with pre-let-7g to analyze the relative binding affinities of the two recombinant proteins. Lin28A and Lin28B have apparent Kds of approximately 0.6 nM and 0.5 nM, respectively (FIG. 7B). Both these estimated Kds are much lower than a previously reported for recombinant mouse Lin28A. This difference is likely due to the omission here of nonspecific yeast tRNA competitor used previously in the binding buffer. Piskounova et al., 2008. […] Collectively, these assays reveal that both Lin28 proteins can directly bind to let-7 precursors with high-affinity in vitro.
(§2) Transformed BL21-CodonPlus® Competent bacteria (Stratagene) were grown to an OD600 nm of 0.4-0.6. Expression was induced 100 μM IPTG for 2-3 hours. Cell pellets were resuspended in cold lysis buffer [20 mM imidazole pH 8.0 in PBS, 0.1% Phenylmethyl sulfonyl fluoride (PMSF)] and sonicated. Cleared lysates were incubated with Ni-NTA beads and after 90 min incubation at 4° C. the beads were washed with 80-column-vol. wash buffer [10 mM Tris (pH 7.8), 50 mM imidazole pH 8.0, 500 mM NaCl, 0.1% PMSF). […] Band intensities of scanned gels were quantified using ImageJ software and used to calculate percentage of probe bound. […]

Lin28B = molecular target: T2, Lin28B (Homo sapiens, UniProt Q6ZN17 Q6ZN17:2-250); assay: as above; details: tags: 6xHis N-terminal, E. coli (pET21); label: 5'-end label (EMSA); hairpin
T2 sequence: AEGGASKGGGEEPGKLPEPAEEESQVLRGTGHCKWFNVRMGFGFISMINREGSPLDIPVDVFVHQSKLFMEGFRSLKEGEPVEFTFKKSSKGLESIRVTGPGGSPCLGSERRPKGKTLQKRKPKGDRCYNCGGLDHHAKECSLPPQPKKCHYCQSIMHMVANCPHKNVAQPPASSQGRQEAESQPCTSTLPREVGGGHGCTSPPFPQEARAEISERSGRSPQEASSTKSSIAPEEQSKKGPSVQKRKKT
Procedure: as §1, §2

mZcchc11 ΔC2H2 (N-terminal truncation lacking the C2H2 zinc finger)
in vitro uridylation of synthetic pre-let-7 (incorporation of radiolabeled UTP) [1]: Loss of the N-terminal C2H2 domain still allowed for basal activity, but this mutant could no longer support Lin28-enhanced uridylation against pre-let-7

B1: mZcchc11 C326/329A (full-length) (protein)
chain: MEEPKTSKNENHEPKKNIICEESKAVKIISNQTLKPRNDKSEIGTSSLNRNSSKKTKQNDICIEKTEAKSCKVNAASVPGPKDLGLVHRDQSHCKMKKLPNSPMKAQKGSSQTKLEKTPSLQTKAEKVPKSPNLPVKAEKAPCTTAEATTEKALNSQRKEENTPTSQMKLQKTPRSPLEPENVPSLLLKENVKQTESQQTGKKLTSSFVSMDKRKSEALQGEKSALENSSLSQKQQTQTDNIADSDDSASGIEDTADDLSKMKSEESNKENSSEMDYLENATVIDESALTPEQRLGLKQAEERLERDHIFRLEKRSPEYTNCRYLAKLALIHIENIQGAHKHIKEKRHKKNILEKQEESELRSLPSPSSAHLAALSVAVVELAKEQGITDDDLRIRQDIVEEMSKVIMTFLPECSLRLYGSSLTKFALKSSDVNIDIKFPPKMNHPDLLIQVLGILKKSALYIDVESDFHAKVPVVVCKDRKSALLCRVSAGNDMACLTTDLLAALGKVEPVFTPLVLAFRYWAKLCYIDSQTDGGIPSYCFALMVMFFLQQRKPPLLPCLLGSWIEGFDPKRMDDFQLKGIVEEKFVKWEYNSSSATEKNLIADENKAKADEPKDDTKKTETDNQSNAAKAKHGKSPLTLEAPNQVPLGQLWLELLKFYTLDFALEEYVICVRIQDILTRENKNWPKRRIAIEDPFSVKRNVARSLNSQLVYEYVVERFRAAYRYFACPQKKGGNKSTMDPKKKEKGKLSSKKPVKSDCSATNCCILGESAEKIHMERGQPAKHDETEFTSQRCIVDNDSLLVNELGLANHGQDSSSLSTASGGSDLKQKSAEKQGDLTPSETSLKKELSQCICIGTPDGAESAGTDCRSNLEMDSSHQIVCNNVSATSCNCKATEVTSDLVDEDNLPSQELYYVFDKFILTSGKPPTIVCSICKKDGHSKNDCPEDFRKIDLKPLPPMTNRFREILDLVCKRCFDELSPPCSEQHNREQILIGLEKFIQKEYDEKARLCLFGSSKNGFGFRDSDLDICMTLEGHENAEKLNCKEIIENLAKILKRHPGLRNILPITTAKVPIVKFEHRRSGLEGDISLYNTLAQHNTRMLATYAAIDPRVQYLGYTMKVFAKRCDIGDASRGSLSSYAYILMVLYFLQQRKPPVIPVLQEIFDGKQIPQRMVDGWNAFFFDKTEELKKRLPSLGKNTESLGELWLGLLRFYTEEFDFKEYVISIRQKKLLTTFEKQWTSKCIAIEDPFDLNHNLGAGVSRKMTNFIMKAFINGRKLFGTPFYPLIGREAEYFFDSRVLTDGELAPNDRCCRVCGKIGHYMKDCPKRKRLKKKDSEEEKEGNEEEKDSRDLLDSRDLRCFICGDAGHVRRECPEVKMARQRNSSVAAAQLVRNLVNAQQVAGSAQQQSDQSIRTRQSSECSDSPSYSPQPQPFPQNSPQPSALPPPPSQPGSQPKLGPPQQGGQPPHQVQMPLYNFPQSPPAHYSPMHSMGLLPMHPLQIPAPSWPIHGPMLHSAPGSTPSNIGLNDPSIIFAQPAARPMAIPSPSHDGHWPRTVAPNSLVNNGAVGNSEPRFRGLNPPIPWEHAPRHFPLVPASWPYGLHQNFMHQGNPRFQPKPFYAQADRCATRRCRERCPHPPRGNVSE
in vitro uridylation of synthetic pre-let-7 (incorporation of radiolabeled UTP) [2]: this mutant exhibited only basal uridylation activity, as the addition of Lin28 had no impact on its catalysis in vitro

B2: pre-let-7g (ssRNA)
RNA: GAGGUAGUAGUUUGUACAGUUUGAGGGUCUAUGAUACCACCCGGUACAGGAGAUAACUGUACAGGCCACUGCCUUGC
binding result (Lin28A): binds | binding result (Lin28B): binds
